Measurements taken from patent US20250361296A1.

T1: His-tagged monkey SIGLEC15 protein (fasSIGLEC15-His, ACROBiosystems Inc., Cat #: SG5-C52H6) (monkey)
T1 sequence: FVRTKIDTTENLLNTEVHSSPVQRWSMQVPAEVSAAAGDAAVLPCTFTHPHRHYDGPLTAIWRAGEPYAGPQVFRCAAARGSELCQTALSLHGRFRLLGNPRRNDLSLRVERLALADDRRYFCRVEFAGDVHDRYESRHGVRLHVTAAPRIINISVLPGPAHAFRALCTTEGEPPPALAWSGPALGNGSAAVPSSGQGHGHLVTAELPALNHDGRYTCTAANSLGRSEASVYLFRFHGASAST


What was measured:
[1] = molecular target: Macaca fascicularis (crab-eating macaque) SIGLEC15 on CHO-S-fasSIGLEC15 cells (Macaca fascicularis (crab-eating macaque)); assay: flow cytometry, CHO-S cells expressing the target
[2] = molecular target: T1, His-tagged monkey SIGLEC15 protein (fasSIGLEC15-His, ACROBiosystems Inc., Cat #: SG5-C52H6) (monkey); assay: SPR (Biacore 8K), antibody captured on Protein A chip, His-tagged SIGLEC15 as analyte

Row | Binder | Percentage of Positive Cells [1] | Kd [2] | koff [2] | kon [2]
1 | anti-SIGLEC15 antibody 10C9 (antibody, human IgG1, V domains shown) VH: QVQLVQSGAEVKKPGATVKVSCKASGYTFTNYGFSWVRQAPGQGLEWMGWINTYNDNTNYAQKFQGRVTMTTDTSTSTAYMELRSLRSDDTAVYYCARDGLWFGELPHYFDYWGQGTLVTVSS VL: DIQLTQSPLSSPVTLGQPASISCRSSQSLVNSDGETFLSWLQQRPGQPPRLLIYKISNRFSGVPDRFSGSGAGTDFTLKISRVEAEDVGVYYCMQATQFPHTFGQGTKLEIK | 47.5% | 0.0206 nM | 5.01e-05 s⁻¹ | 2.43e+06 M⁻¹ s⁻¹
2 | anti-SIGLEC15 antibody 10A7 (antibody, human IgG1, V domains shown) VH: EVQLVQSGGGLVQPGGSLRLSCAASGFTFSNYEMNWVRQAPGKGLEWISYISNSGSTIYYADSVKGRFTISRDDAKNSLYLQMNSLRAEDTAVYYCAREDYDSSGYYWFDPWGQGTPVTVSS VL: DIQLTQSPSSVSASVGDRVTITCRASQGISSWLAWYQQKPGKAPKLLIYAASSLQSGVPSRFSGSGSGTDFTLTINSLQPEDFATYYCQQTNSFPLTFGGGTKVEIK | 49.3% | – | – | –
